Assay results reported in publication PMC6378967, “Structural basis for the specificity of renin-mediated angiotensinogen cleavage” (The Journal of Biological Chemistry, 2018).

T1: biotinylated renin D226A mutant (human, biotin (NHS-PEG4-Biotin), preferentially on N-terminal alpha-amino groups)
T1 construct: human renin D226A, as m1; source: HEK293EBNA cells, purified; biotinylated with EZ-link-NHS-PEG4-Biotin at pH 6.2
T1 sequence (P00797 67-406 with D226A, looked up): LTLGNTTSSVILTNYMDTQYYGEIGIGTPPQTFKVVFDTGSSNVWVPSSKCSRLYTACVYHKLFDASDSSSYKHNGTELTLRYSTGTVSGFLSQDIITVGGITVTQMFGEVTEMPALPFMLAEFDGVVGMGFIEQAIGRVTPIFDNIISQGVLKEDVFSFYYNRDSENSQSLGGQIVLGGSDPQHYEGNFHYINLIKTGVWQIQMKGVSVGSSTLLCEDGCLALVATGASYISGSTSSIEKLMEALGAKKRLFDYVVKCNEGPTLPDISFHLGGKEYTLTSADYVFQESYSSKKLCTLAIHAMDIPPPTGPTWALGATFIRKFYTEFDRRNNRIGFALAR

B1: fully glycosylated WT human angiotensinogen (AGT) (natural protein)
chain: DRVYIHPFHLVIHNESTCEQLAKANAGKPKDPTFIPAPIQAKTSPVDEKALQDQLVLVAAKLDTEDKLRAAMVGMLANFLGFRIYGMHSELWGVVHGATVLSPTAVFGTLASLYLGALDHTADRLQAILGVPWKDKNCTSRLDAHKVLSALQAVQGLLVAQGRADSQAQLLLSTVVGVFTAPGLHLKQPFVQGLALYTPVVLPRSLDFTELDVAAEKIDRFMQAVTGWKTGCSLMGASVDSTLAFNTYVHFQGKMKGFSLLAEPQEFWVDNSTSVSVPMLSGMGTFQHWSDIQDNFSVTQVPFTESACLLLIQPHYASDLDKVEGLTFQQNSLNWMKKLSPRTIHLTMPQLVLQGSYDLQDLLAQAELPAILHTELNLQKLSNDRIRVGEVLNSIFFELEADEREPTESTQQLNKPEVLEVTLNRPFLFAVYDQSATALHFLGRVANPLSTA
modifications: N-linked glycans (fully glycosylated; glycosylation sites Asn14, Asn137, Asn271, Asn295)
B2: spent AGT (human AGT without the N-terminal 10-residue angiotensin I peptide) (domain or fragment)
chain: VIHNESTCEQLAKANAGKPKDPTFIPAPIQAKTSPVDEKALQDQLVLVAAKLDTEDKLRAAMVGMLANFLGFRIYGMHSELWGVVHGATVLSPTAVFGTLASLYLGALDHTADRLQAILGVPWKDKNCTSRLDAHKVLSALQAVQGLLVAQGRADSQAQLLLSTVVGVFTAPGLHLKQPFVQGLALYTPVVLPRSLDFTELDVAAEKIDRFMQAVTGWKTGCSLMGASVDSTLAFNTYVHFQGKMKGFSLLAEPQEFWVDNSTSVSVPMLSGMGTFQHWSDIQDNFSVTQVPFTESACLLLIQPHYASDLDKVEGLTFQQNSLNWMKKLSPRTIHLTMPQLVLQGSYDLQDLLAQAELPAILHTELNLQKLSNDRIRVGEVLNSIFFELEADEREPTESTQQLNKPEVLEVTLNRPFLFAVYDQSATALHFLGRVANPLSTA
modifications: glycosylated

Columns and labels:
[1] = target: T1, biotinylated renin D226A mutant; experiment: BLI; FortéBio Octet Red96; biotinylated renin D226A (2.5 μg/ml) loaded on streptavidin biosensors; 2-fold dilutions of AGT in 10 mM Tris, pH 7.4, 0.15 M NaCl, 1% BSA; 1:1 binding model, global fit; KD = koff/kon; three independent assays; details: both partners purified
[2] = target: T1, biotinylated renin D226A mutant; experiment: BLI; as a1 (biotinylated renin D226A on streptavidin biosensors), but KD from steady-state analysis because on and off rates were very fast; details: both partners purified

Binder | Kd [1] | koff [1] | kon [1] | Kd [2]
B1 | 0.0203 µM | 0.000437 s⁻¹ | 21500 M⁻¹ s⁻¹ | –
B2 | – | – | – | 13 µM
